Measured values taken from US20150141617A1, “PRODUCTION AND PURIFICATION OF ACTIVE EUKARYOTIC FORMYLGLYCINEGENERATING ENZYME (FGE) VARIANTS” (Universität Bielefeld, priority 2013, published 2015).

Tests used:
[1] = biological target: T1, human PACE4 (Homo sapiens, UniProt P29122); experiment: FGE processing in CHO-FD11 Tet-On cells co-expressing PACE4; type: cell-based; conditions: PACE4 coexpression
T1 construct: expressed in transfected cells; host or cells: CHO-FD11 Tet-On cells, transient co-transfection with pBI-FGE-HA
T1 sequence (P29122 150-969): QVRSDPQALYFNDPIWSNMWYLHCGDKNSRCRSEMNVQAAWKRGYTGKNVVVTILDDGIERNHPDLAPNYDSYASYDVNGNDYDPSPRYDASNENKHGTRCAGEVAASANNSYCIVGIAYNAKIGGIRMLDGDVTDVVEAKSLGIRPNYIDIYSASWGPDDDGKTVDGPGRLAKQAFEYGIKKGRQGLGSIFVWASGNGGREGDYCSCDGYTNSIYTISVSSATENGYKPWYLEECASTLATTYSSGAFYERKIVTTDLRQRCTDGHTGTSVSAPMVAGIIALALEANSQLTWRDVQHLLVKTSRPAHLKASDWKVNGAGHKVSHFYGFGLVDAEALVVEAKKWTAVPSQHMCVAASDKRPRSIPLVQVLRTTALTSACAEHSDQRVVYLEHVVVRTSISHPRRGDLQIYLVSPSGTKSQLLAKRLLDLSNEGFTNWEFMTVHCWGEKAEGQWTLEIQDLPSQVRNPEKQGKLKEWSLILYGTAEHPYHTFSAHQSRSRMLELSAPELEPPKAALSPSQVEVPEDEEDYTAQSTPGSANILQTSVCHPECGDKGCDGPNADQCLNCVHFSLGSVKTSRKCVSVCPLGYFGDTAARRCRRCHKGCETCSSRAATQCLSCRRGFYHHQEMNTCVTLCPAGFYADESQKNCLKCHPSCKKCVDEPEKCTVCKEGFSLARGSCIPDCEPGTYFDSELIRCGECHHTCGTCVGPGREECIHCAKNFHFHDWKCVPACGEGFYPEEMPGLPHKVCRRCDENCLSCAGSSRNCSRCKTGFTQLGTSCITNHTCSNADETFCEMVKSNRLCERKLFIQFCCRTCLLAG
From the text: (§1) The resulting constructs were verified by full-length sequencing of the coding region to exclude any PCR prone errors. Plasmids for expression of the PCs encoding human furin (Gene ID 5045), human PACE4 (=PCSK6, Gene ID 5046), murine […] (=Pcsk5, Gene ID 18552) and rat PC7 (=Pcsk7, Gene ID 29606) were kindly provided by Abdel-Majid Khatib (18). Note that the PC cDNAs were encoded as pIRES constructs coding also for enhanced green fluorescence protein (EGFP) such that EGFP expression levels serve as a measure of the expression levels of PCs.
(§2) 3 μg of pSB-FGE-RGS-His6 vector was used for single transfections of HT1080, HeLa, HEK 293, BHK and CHO cells. Conditioned medium was collected after 24 h and centrifuged (500×g, 5 min) Cells were washed once with PBS, treated with trypsin (Lonza) and pelleted by 250×g to remove the medium. Cell pellets were resuspended in PBS (pH 7.4) containing protease inhibitor (PI) cocktail (Sigma) and lysed by sonication 3×10 s on ice. For co-expression of FGE with one of the PCs in CHO-FD11 Tet-On cells 2 μg of pBI-FGE-HA and 2 μg of the plasmids encoding PCs (see above) were used for transient transfection. In case of transient transfections using pBI-vector constructs the protein expression was induced by replenishing the medium with medium containing 2 μg/mL doxycycline (BD Biosciences) at 5 h post-transfection. […]

[2] = biological target: T2, PC5a (Mus musculus, UniProt Q04592); experiment: FGE processing in CHO-FD11 Tet-On cells co-expressing PC5a; type: cell-based, murine; conditions: PC5a coexpression
T2 construct: expressed in transfected cells; host or cells: CHO-FD11 Tet-On cells, transient co-transfection with pBI-FGE-HA
T2 sequence (Q04592 117-915 isoform Q04592-2 limits assumed): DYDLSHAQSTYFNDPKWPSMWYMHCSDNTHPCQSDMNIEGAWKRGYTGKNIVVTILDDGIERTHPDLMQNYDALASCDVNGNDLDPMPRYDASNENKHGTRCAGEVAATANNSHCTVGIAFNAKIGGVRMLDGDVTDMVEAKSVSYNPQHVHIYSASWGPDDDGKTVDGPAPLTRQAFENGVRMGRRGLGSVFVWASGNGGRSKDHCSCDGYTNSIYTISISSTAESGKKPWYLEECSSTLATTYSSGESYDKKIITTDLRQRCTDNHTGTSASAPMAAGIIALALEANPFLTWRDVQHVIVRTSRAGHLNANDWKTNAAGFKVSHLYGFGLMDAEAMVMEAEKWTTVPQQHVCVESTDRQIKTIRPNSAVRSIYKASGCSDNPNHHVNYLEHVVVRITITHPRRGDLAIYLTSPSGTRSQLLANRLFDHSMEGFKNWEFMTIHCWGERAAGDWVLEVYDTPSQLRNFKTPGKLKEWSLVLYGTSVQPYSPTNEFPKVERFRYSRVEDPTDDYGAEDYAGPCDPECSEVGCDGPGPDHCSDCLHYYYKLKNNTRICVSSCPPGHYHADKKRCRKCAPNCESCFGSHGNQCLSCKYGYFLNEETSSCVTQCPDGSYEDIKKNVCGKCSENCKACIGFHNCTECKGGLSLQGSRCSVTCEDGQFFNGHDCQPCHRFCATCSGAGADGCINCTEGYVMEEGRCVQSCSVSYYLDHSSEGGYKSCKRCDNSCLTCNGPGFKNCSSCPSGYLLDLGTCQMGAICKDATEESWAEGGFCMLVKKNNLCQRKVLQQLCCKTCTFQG
From the text: as §1, §2

processing of FGE [1]: low efficiency
processing of FGE [2]: low efficiency
B1: FGE: human wild type full length formylglycine generating enzyme with RYSR furin cleavage motif, SEQ ID NO:2 (protein)
chain: ADEFSQEAGTGAGAGSLAGSCGCGTPQRPGAHGSSAAAHRYSREANAPGPVPGERQLAHSKMVPIPAGVFTMGTDDPQIKQDGEAPARRVTIDAFYMDAYEVSNTEFEKFVNSTGYLTEAEKFGDSFVFEGMLSEQVKTNIQQAVAAAPWWLPVKGANWRHPEGPDSTILHRPDHPVLHVSWNDAVAYCTWAGKRLPTEAEWEYSCRGGLHNRLFPWGNKLQPKGQHYANIWQGEFPVTNTGEDGFQGTAPVDAFPPNGYGLYNIVGNAWEWTSDWWTVHHSVEETLNPKGPPSGKDRVKKGGSYMCHRSYCYRYRCAARSQNTPDSSASNLGFRCAADRLPTMDSGRGSHHHHHHH
modifications: cloned matured acitve full length FGE with 6x His tag on C-terminus
